Biological target: mCherry-RAB28 WT (UniProt Q99KL7 1-221)
Assay: co-IP; HEK293 cells cotransfected with FLAG-CFAP418 and mCherry-RAB28 WT, T26N, Q72L or mCherry; mCherry proteins 'pulled down', FLAG-CFAP418 seen only in the overexposed immunoblot
Details: partners not purified

B1: FLAG-CFAP418 (natural protein)
chain: MAKDLDELLDEVETKFCRLDPLRLDLGERPKGDGGGGSHSGDRNGAQEKETLRSTETFKKEDDLDSLINEIFEEPDFDRKSFQKFKSKSSSNTCVRAPMQGVSKSCSPVYLSGSAIPCGIGTNTSQRACDRLRCVACDFRIVSYNDYMWDKSCDYLFFRNNMPEFHKLKTKLIEKKGARAYACQCSWRTVEELTDLQTDHQLRWVCGKH
notes: CFAP418; source: HEK293, cotransfected, in lysate
fraction of CFAP418 pulled down: ~0.1%

Source: paper PMC10906455, “Disruption of CFAP418 interaction with lipids causes widespread abnormal membrane-associated cellular processes in retinal degenerations” (JCI Insight, 2024)
